From article PMC7383930 (Journal of Medicinal Chemistry, 2020)

How the values were obtained:
[1] = biological target: PSMA on PC3-PIP (PSMA+) prostate cancer cells (Homo sapiens, UniProt Q04609); experiment: cell-based or functional assay
[2] = biological target: purified extracellular domain of PSMA (prostate-specific membrane antigen), residues 44–750 (human, UniProt Q04609); experiment: SPR; ProteOn XPR36 chip; each NB (0.2 μg) immobilised by amine coupling (sulfo-NHS/EDC, 10 mM sodium acetate pH 5.0); soluble PSMA flowed at 25 μL/min (25-3200 pM for NB7; 2.94-47.00 nM for NB8, NB13, NB37); dissociation in PBST (0.005% Tween); BSA surface subtracted; Langmuir 1:1 kinetic model; 25 °C; settings: both partners purified
Chain of purified extracellular domain of PSMA (prostate-specific membrane antigen), residues 44–750 (Q04609 44-750): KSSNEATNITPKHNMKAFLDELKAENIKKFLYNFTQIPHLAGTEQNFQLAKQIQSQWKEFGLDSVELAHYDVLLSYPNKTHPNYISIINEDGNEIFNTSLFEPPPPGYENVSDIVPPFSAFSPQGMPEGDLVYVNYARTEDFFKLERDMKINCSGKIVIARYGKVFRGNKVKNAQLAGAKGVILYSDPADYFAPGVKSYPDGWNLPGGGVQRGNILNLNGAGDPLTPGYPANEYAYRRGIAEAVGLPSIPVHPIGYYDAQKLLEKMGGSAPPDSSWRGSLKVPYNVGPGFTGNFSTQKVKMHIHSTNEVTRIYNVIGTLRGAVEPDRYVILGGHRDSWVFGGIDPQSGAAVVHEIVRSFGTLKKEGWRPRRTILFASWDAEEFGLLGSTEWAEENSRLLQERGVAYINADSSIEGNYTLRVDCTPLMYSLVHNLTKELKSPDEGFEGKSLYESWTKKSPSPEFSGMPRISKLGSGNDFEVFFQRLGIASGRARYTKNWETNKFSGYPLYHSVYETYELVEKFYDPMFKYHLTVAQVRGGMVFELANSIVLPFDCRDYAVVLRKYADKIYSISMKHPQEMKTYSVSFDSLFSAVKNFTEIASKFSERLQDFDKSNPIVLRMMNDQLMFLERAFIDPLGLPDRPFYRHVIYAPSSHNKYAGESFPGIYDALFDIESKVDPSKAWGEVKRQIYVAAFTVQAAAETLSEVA

Chain of PSMA on PC3-PIP (PSMA+) prostate cancer cells (Q04609 whole entry, the tested form may be a part): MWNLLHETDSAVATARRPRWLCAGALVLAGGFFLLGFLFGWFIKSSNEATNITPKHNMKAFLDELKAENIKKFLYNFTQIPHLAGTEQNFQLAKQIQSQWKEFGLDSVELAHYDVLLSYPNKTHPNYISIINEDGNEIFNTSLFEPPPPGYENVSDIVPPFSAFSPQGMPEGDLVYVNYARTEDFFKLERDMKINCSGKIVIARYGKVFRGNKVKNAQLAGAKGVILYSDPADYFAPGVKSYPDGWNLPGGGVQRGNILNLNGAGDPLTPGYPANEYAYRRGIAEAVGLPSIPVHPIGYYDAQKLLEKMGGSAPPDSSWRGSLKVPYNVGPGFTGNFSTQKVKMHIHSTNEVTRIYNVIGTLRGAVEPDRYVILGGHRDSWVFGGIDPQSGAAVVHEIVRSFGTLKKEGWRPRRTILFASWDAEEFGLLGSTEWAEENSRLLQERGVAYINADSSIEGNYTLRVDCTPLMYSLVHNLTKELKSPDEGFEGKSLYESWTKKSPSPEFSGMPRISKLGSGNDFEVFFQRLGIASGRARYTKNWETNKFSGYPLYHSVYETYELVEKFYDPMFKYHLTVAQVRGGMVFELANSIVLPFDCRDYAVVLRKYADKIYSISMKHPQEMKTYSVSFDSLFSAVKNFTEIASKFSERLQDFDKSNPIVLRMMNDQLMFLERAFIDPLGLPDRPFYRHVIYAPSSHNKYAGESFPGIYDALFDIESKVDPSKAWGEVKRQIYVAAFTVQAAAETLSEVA

| Binder | whole-body NIR imaging of mice with PC3-PIP xenografts, AF680-labelled NB: duration until the fluorescent signal was no longer detected [1] | Kd [2] | koff [2] | kon [2] |
| --- | --- | --- | --- | --- |
| NB37 (VHH) VHH: QVQLQESGGGSVEAGGSLRLSCARSGWPYSTYSMNWFRQAPGKEREAVAGISSTMSGIIFAESKAGQFTISQDNAKNTVYLQMNNLKPEDTAIYYCAARRDYSLSSSSDDFDYWGQGTQVTVSS | 24 h | 3.4 nM | 7.5e-05 s⁻¹ | 22000 M⁻¹ s⁻¹ |
| NB13 (VHH) VHH: QVQLQESGGGSVQTGGSLRLSCAASGYTASFSWIGYFRQAPGKEREGVAVINVGVGSTYYADSVKGRFTISRDNTENTISLEMNSLKPEDTGLYYCAGSLRWSRPPNPISEDAYNYWGQGTQVTVSS | 32 h | 0.6 nM | 2.2e-05 s⁻¹ | 36000 M⁻¹ s⁻¹ |

Continued, values first:

| whole-body NIR imaging of mice with PC3-PIP xenografts, AF680-labelled NB: duration until the fluorescent signal was no longer detected [1] | Kd [2] | koff [2] | kon [2] | Binder |
| --- | --- | --- | --- | --- |
| 32 h | 6 nM | 0.00012 s⁻¹ | 20000 M⁻¹ s⁻¹ | NB8 (VHH) VHH: QVQLQESGGGSVQAGGSLRLSCARSGWPYSTYSMNWFRQAPGKEREAVAGISSTMSGIIFAESKAGQFTISQDNAKNTVYLQMNNLKPEDTAIYYCAARRDYSLSSSSDDFDYWGQGTQVTVSS |
|  | 0.055 nM | 3.9e-05 s⁻¹ | 710000 M⁻¹ s⁻¹ | NB7 (VHH) VHH: QVQLQESGGGSVQAGGSLRLSCTAPGYTDSNYYMSWFRQAPGKEREWVAGVNTGRGSTSYADSVKGRFTISQDNAKNTMFLQMNSLKPEDTAIYYCAVAACHFCDSLPKTQDEYILWGQGTQVTVSS |
